Assays:
[1] = biological target: T1, CAD (Homo sapiens, UniProt Q13586); test: Co-immunoprecipitation of Orai1 fragments with CAD in HEK 293T cells; format: binding; conditions: YFP-tagged Orai1 fragment with Flag-myc-CAD in HEK 293T cells
T1 construct: For STIM1 342-448 (CAD); expressed in transfected cells; host or cells: HEK 293T
Method: Immunoprecipitation and Immunoblot Analysis. Transfected HEK 293T cells (12-24 h) were washed with PBS and lysed in 50 mM Tris-HCl pH 7.5, 150 mM NaCl, 1% Triton X-100, and protease inhibitors. Lysates were spun at 12,000 rpm for 10 min, and the supernatant was incubated with anti-Flag M2 agarose beads (Sigma), or anti-myc or -HA antibody followed by IgG agarose beads (Pierce). Lysates and immunoprecipitates were subjected to SDS-PAGE, probed with HRP-conjugated secondary antibody and detected by enhanced chemiluminescence (Pierce).
STIM1-CAD BINDS TO THE N- AND C-TERMINI OF ORAI1. To identify regions of Orai1 important for activation by CAD, we characterized the binding of CAD to Orai1 using two approaches. First we expressed fusions of NubG with the N-terminus, the II-III cytoplasmic loop and the C-terminus of Orai1 in yeast together with different CAD-Cub-LV constructs. […] Based on the level of b-gal activity, CAD appears to interact with the Orai1 C-terminus with a higher affinity than with the N-terminus. We next expressed fusions of YFP with the N-terminus, the II-III loop and the C-terminus of Orai1 in HEK 293T cells together with Flag-myc-CAD. […]

[2] = tested on: endogenous CRAC channels; test: NFAT-luciferase assay in HEK 293T (NFAT-Luc) cells; format: cell-based; conditions: following treatment with TG+PMA
Method: NFAT-luciferase Assays. HEK 293T cells were co-transfected with the indicated constructs and an NFAT reporter gene (firefly luciferase gene C-terminal to 4×-NFAT site from the IL-2 gene). Cotransfection with the Renilla luciferase (pRLTK) gene driven by the TK promoter was used to control for cell number and transfection efficiency. After 12-18 h, cells were treated with a control DMSO solution (mock), PMA (1 μM), or PMA plus TG (1 μM) for 8 h. Assays were performed using the Dual Luciferase Reporter assay system (Promega). For each condition, luciferase activity was measured with 4 samples taken from duplicate wells using a 96-well automated luminometer (Turner Biosystems). Results are represented as the ratio of firefly to Renilla luciferase activity.
Identifying a Minimal Cytosolic Region of STIM1 that Opens the CRAC Channel. To identify the CRAC-activating domain of STIM1, we first tested a series of soluble cytosolic STIM1 fragments for their ability to activate an NFAT-dependent luciferase reporter gene (NFAT-luc). A series of constructs were generated by progressive truncation of the full-length cytosolic region of STIM1 (FIG. 2A; STIM1234-685; CT-STIM1) and were transiently expressed in a HEK 293T cell line containing NFAT-luc. […]

[3] = biological target: T2, Orai1 (Homo sapiens, UniProt Q96D31); test: Puncta formation of STIM1 variants by confocal microscopy in HEK 293 cells; format: cell-based; conditions: coexpressed with eGFP-Orai1, TG
T2 construct: expressed in transfected cells; host or cells: HEK 293
T2 sequence (Q96D31 whole entry): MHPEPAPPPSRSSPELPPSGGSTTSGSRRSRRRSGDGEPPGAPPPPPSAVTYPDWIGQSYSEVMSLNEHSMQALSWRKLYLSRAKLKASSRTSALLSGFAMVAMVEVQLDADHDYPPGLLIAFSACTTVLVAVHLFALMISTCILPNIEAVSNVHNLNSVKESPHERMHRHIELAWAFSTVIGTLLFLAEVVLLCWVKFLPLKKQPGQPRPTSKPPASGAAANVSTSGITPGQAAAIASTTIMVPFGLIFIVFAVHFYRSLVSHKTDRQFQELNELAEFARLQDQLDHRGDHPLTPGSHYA
Method: Confocal Microscopy. 6 h after transfection, HEK 293 cells were plated onto sterilized coverslips coated with poly-D-lysine and maintained in complete DMEM for an additional 12-18 h before imaging in Ringer's solution containing (in mM): 155 NaCl, 4.5 KCl, 2 CaCl2, 1 MgCl2, 10 D-glucose, and 5 Na-Hepes, pH 7.4. To deplete stores, cells were treated with 1 μM TG in Ca2+-free Ringer's (prepared by substituting 2 mM MgCl2 and 1 mM EGTA for CaCl2) for 10 min. eGFP and mCherry were excited simultaneously at 488 and 594 nm, respectively, on a Leica SP2 AOBS inverted confocal microscope equipped with a PL APO 100×/NA 1.4 oil immersion objective. Fluorescence emissions were collected at 615-840 nm (mCherry) and 510-570 nm (eGFP). All experiments were performed at 22-25° C.
Quantitation of STIM1 and Orai1 Recruitment into Puncta. Colocalization of eGFP-Orai1 and mCh-STIM1 variants was analyzed from background-corrected confocal image pairs acquired before and after store depletion. Puncta have two defining characteristics: (1) because they are sites of accumulation, STIM1 and Orai1 fluorescence intensities in puncta are greater than the respective mean intensities measured across the entire cell, and (2) because STIM1 and Orai1 co-localize in puncta, their fluorescence covariance is high. […]

[4] = biological target: T2, Orai1; test: Store-operated Ca2+ entry by STIM1 variants, single cell Ca2+ imaging; format: cell-based; conditions: coexpressed with eGFP-Orai1, TG
Method: For FIG. 7, cells were loaded as above with 2 μM fura-2/AM for 25 min. Ratiometric Ca2+ imaging was performed with 350 and 380 nm excitation in 2 mM Ca2+ Ringer's solution on an Axiovert 35 inverted microscope using a VideoProbe imaging system as described (Bautista et al., 2002). mCherry-positive cells were identified using a 540±12 nm excitation and a 580LP emission filter (Chroma).
The Role of CAD in Orai1 Binding and Activation by STIM1. A key question is whether CAD is responsible for the clustering and activation of CRAC channels by full-length STIM1 following store depletion. To address this, we measured the ability of mCherry-tagged STIM1 variants containing CAD mutations to co-cluster with eGFP-Orai1 and activate Ca^2+ entry in response to TG (FIG. 7). STIM1-Orai1 colocalization was quantified as the fraction of total STIM1 and Orai1 fluorescence that was recruited to regions of high fluorescence covariance (FIG. 13), while Ca^2+ influx was measured with single cell Ca^2+ imaging. For each set of experiments we measured mCherry and GFP fluorescence to confirm that differences in the activity of the various STIM1 constructs were not due to differences in expression level (FIG. 14).

T1 sequence (Q13586 342-448): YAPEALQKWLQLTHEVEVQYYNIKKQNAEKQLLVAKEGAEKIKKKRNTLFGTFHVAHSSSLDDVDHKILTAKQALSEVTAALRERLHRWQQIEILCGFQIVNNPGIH

B1: Orai11-70: Orai1 fragment aa 1-70 (protein)
chain: MHPEPAPPPSRSSPELPPSGGSTTSGSRRSRRRSGDGEPPGAPPPPPSAVTYPDWIGQSYSEVMSLNEHS
modifications: left off: small tags and cut ends
- co-immunoprecipitation with CAD [1]: not

B2: STIM1-DCAD: WT-STIM1 with the CAD deleted (protein)
chain: LSHSHSEKATGTSSGANSEESTAAEFCRIDKPLCHSEDEKLSFEAVRNIHKLMDDDANGDVDVEESDEFLREDLNYHDPTVKHSTFHGEDKLISVEDLWKAWKSSEVYNWTVDEVVQWLITYVELPQYEETFRKLQLSGHAMPRLAVTNTTMTGTVLKMTDRSHRQKLQLKALDTVLFGPPLLTRHNHLKDFMLVVSIVIGVGGCWFAYIQNRYSKEHMKKMMKDLEGLHRAEQSLHDLQERLHKAQEEHRTVEVEKVHLEKKLRDEINLAKQEAQRLKELREGTENERSRQKYAEEELEQVREALRKAEKELESHSSWSLVAALNIDPSWMGSTRPNPAHFIMTDDVDDMDEEIVSPLSMQSPSLQSSVRQRLTEPQHGLGSQRDLTHSDSESSLHMSDRQRVAPKPPQMSRAADEALNAMTSNGSHRLIEGVHPGSLVEKLPDSPALAKKALLALNHGLDKAHSLMELSPSAPPGGSPHLDSSRSHSPSSPDPDTPSPVGDSRALQASRNTRIPHLAGKKAVAEEDNGSIGEETDSSPGRKKFPLKIFKKPLKK
modifications: left off: large carriers
notes: WT-STIM1 with the CAD deleted
- NFAT activation by endogenous channels [2]: inhibited NFAT activation
- puncta formation with Orai1 after store depletion [3]: failed to form puncta
- Ca2+ entry (SOCE) after store depletion [4]: failed to form puncta, cluster Orai1 or activate Ca^2+ entry

From patent US20120165265A1, “Calcium Signaling Modulators Involving STIM and ORAI Proteins” (priority 2009, published 2012)
